Source: the nanobody polyreactivity screen of Harvey et al. (2022)

Test: yeast display, Sf9 membrane polyspecificity reagent, FACS + sequencing; frameworks hold sequencing errors
Summary of the method: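 Galactose induction of a Saccharomyces cerevisiae BJ5465 synthetic nanobody display library ran 36–48 hours. The cells were then stained for 1 hour at 4 °C with 10% biotinylated, detergent-solubilized Sf9 membrane reagent, pulled down on streptavidin microbeads and FACS-sorted into low and high (top ~1%) gates on expression and reagent-binding fluorescence. Labels for polyreactivity follow the gate of origin.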

Row | Sequence | polyreactivity (PSR sort gate)
1 | QVQLEESGGGLVQAGGSLRLSCAASGSIIWSYAMGWYRQAPGKERELVAVINWSGGSTYYADSVKGRFTISRDNAKNTVYLQMNSLKPEDTAVYYCNKDLGPTKRPFTFDYWGQGTQVTVSS | low polyreactivity
2 | QVQLEESGGGLVQAGGSLRLSCAASGSISYYYGMGWYRQAPGKERELVAAISTRGGSTYYADSVKGRFTISRDNAKNTVYLQMNSLKPEDTAVYYCNKVYYKRFYYWGQGTQVTVSS | high polyreactivity
3 | QVQLEESGGGLVQAGGSLRLSCAASGSIYTYTMGWYRQAPGKERELVAAISWNGGRTYYADSVKGRFTISRDNAKNTVYLQMNSLKPEDTAVYYCNAAISYSYGYWGQGTQVTVSS | high polyreactivity
4 | QVQLEESGGGLVQAGGSLRLSCAASGSTFDRYGMGWYRQAHWKERELVAAINSGDITNYADSVKGRFTISRDNAKNTVYLQMNSLKPEDTAVYYCAATQSRYYSDDPYYYWGQGTQVTVSS | low polyreactivity
5 | QVQLEESGGGLVQAGGSLRLSCAASGSTFKYYAMGWYRQAPGKERELVAAISWSGGSTYYADSVKGRFTISRDNAKNTVYLQMNRLKPEDTAVYYCNKLIYDEDEYWGQGTQVTVSS | high polyreactivity
6 | QVQLEESGGGLVQAGGSLRLSCAASGSTFLRYAIGWYRQAPGKEMELVAAITASGGSTFYADSVKGRFTISRDYAKNTVYLQMNSLKPEDTPVYYCAADVSYIGKYSHDLWIYGYYYWGQGTQVTVSS | low polyreactivity
7 | QVQLEESGGGLVQAGGSLRLSCAASGSTFSRYAMGWYRQAPGKERELVAAISSSGGGTYYADSVKGRFTISRDNAKNTVYLQMNSLKPEDTAVYYCAAKRVHGATGYWGQGTQVTVSS | high polyreactivity
8 | QVQLEESGGGLVQAGGSLRLSCAASGSTFSSNVMGWYRQAPGKERELVAAITGSGSRTYYADSVKGRFTISRDNAKNTVYLQMNSLKPEDTAVYYCNTKGRSRETYGYDYWGQGTQVTVSS | high polyreactivity
9 | QVQLEESGGGLVQAGGSLRLSCAASGSTFSYYAMGWYRQAPGKERELVAAITYSVGSTYYADSVKGRFTISRDNAKNTVYLQMNSLKPEDTAVYYCNKRYYYSRANYPYDYWGQGTQVTVSS | low polyreactivity
10 | QVQLEESGGGLVQAGGSLRLSCAASGSTFVYNPMGWYRQAPGKETELVAVITYRGGRTYSADSVKGRFTISRDYAKNSVYLQMNSLKPEDTAVYYCAKRVYGSKVRGYDYWGQGTQVTVSS | high polyreactivity
11 | QVQLEESGGGLVQAGGSLRLSCAASGSTFYSYVMGWYRQAPGKERELVAAISSIGGSTYYADSVKGRFTISRDNAKNTVYLQMNSLKPEDTAVYYCAAEPPGSTYEGGYWGQGTQVTVSS | low polyreactivity
12 | QVQLEESGGGLVQAGGSLRLSCAASGSTIDYYTMGWYRQAPGKERELVAAISSSGGSTYYADSVKGRFTISRDNAKNTVYLQMNSLKPEDTAVYYCNSDSWYPDHFSYYGPYDYWGQGTQVTVSS | low polyreactivity
13 | QVQLEESGGGLVQAGGSLRLSCAASGSTIHSYAMGWYRHAPGKERELVAAITTTGTRTYYADSVKGRFTISRDNAKNTVYLQMNSLKPEDTAVYYCNAQRLQAHRTSRRYGFWGQGTQVTVSS | high polyreactivity
14 | QVQLEESGGGLVQAGGSLRLSCAASGSTLNRYPMGWNRHATGKERELVATIRWSGGSTYYADSVKPRFTISRYNEKHTVDLQMNSLKAEDTAVYYCAPDRYYYRGRYYGYTREFDYWGQGTHVTVSS | high polyreactivity
15 | QVQLEESGGGLVQAGGSLRLSCAASGSTYYYYAMGWYRQAPGKERELVAAISRSGITYYADSVKGRFTISRDNAKNTVYLQMNSLKPEDTAVYYCAAGRRFDQSMYYWGQGTQVTVSS | high polyreactivity
16 | QVQLEESGGGLVQAGGSLRLSCAASGYTFSFYAMGWYRQAPGKERELVAAISRSGGSTYYADSVKGRFTISRDNAKNTVYLQMNSLKPEDTAVYYCAARWPGAYHEYGYWGQGTQVTVSS | high polyreactivity
17 | QVQLEESGGGLVQAGGSLRLSCAAYGSIFRFYAMGRYRQAPGKERQFVASITGTGGSTYYADSVKGRFTISRDNAKNTVYLQMNSLKPEDTAVYYCAKTQYSFPRLGYDYWGQGTQVTVSS | high polyreactivity
18 | QVQLEESGGGLVQAGGSLRLSCAAYGSIFYKNAMGWYRQAPGKERELVAAITYSGGSTYYADSVKGRFTISRDNAKKTVYLQMNSLKPEDTAVYYCAADIGVYGERREEEYDYWGQGTQVTVSS | low polyreactivity
19 | QVQLEESGGGLVQAGGSLRLSCAPSGLTFGGNAMGWYRQAPGKERELVAAISSGGSTNYADSVKGRFTISRDNAKNTDFLNMNSLKPEDTAVYYCAARDRPGNYFTEYGYWGQGTQVTVSS | low polyreactivity
20 | QVQLEESGGGLVQAGGSLRLSCASSGRIFQVNTMGWYRQAPGKESELVAAISASVGSTYYADSVKGRFTISRDNAKNTVYLQMNILKPEDTAVYYCAKSLGYSVVRTLSPTGFYYWGQGTQVTVSS | low polyreactivity

Row | Sequence | polyreactivity (PSR sort gate)
21 | QVQLEESGGGLVQAGGSLRLSCSASGRIFIKYAMGWYRQAPGKEREFVAAISGRGGSTYYADSVKGRFTISRDNAKNTVYLQMNSLKPEDTAVYYWAKRFFSTGTAAGMYYWGQGTQVTVSS | high polyreactivity
22 | QVQLEESGGGLVQAGGSLRLSFAASGRIFRRYAMGWYRQAPVKERELVAAISSRGGRTYYADSVKGRFTISRDNAKNTVYLQMNSLKPDDTAVYYCAAYYFFTDTYGPYEYWGQGTQVTVSS | high polyreactivity
23 | QVQLEESGGGLVQAGGSLRLSSAASGYIFDWYAMGWYRQAPGKEREFVAAISGSDGSTYYADSVKGRFTISRDNAKNTVYLQMNSLKPVDTPVYYCAADPYYGDMEYWGQGTQVTVSS | low polyreactivity
24 | QVQLEESGGGLVQAGGSLRLTCAASGRIFYRYAMGWYRQAPGKEREFVAAISGTGGSTYYADSVKGRFTISRDNAKNTVNLQMNSLKPEDTAVYYCAAVSYYSSGYDYWGQGTQVTVSS | high polyreactivity
25 | QVQLEESGGGLVQAGGSLRLTCDASGLIFSYYAMGWYRQAPGKERELVAAITGSGGTTYYADSVKGRFTISRDNAKNTVLLQMNSLKPEDTAVYYCATPPPEVWQRWYREYDYWGQGTQVTVSS | low polyreactivity
26 | QVQLEESGGGLVQAGGSLSLSCAASGFIFPTYAMGWYRQAPGKERELVAVISGGGRTKYADSVKGRFTISRDNAKNTVYLQMNSLKPEDTAVYYCNADYWKGWTKFEYWGQGTQVTLSS | high polyreactivity
27 | QVQLEESGGGLVQAGGSLSLSCAASGSIFYGYAMGWYRQAPGKERELVAAITSGGRTYYADSVKGRFTISRDNAKNTVYLQMNSLKPEDTAVYYCNAVYRKTSYGYWGQGTQVTVSS | high polyreactivity
28 | QVQLEESGGGLVQAGGTLRLSCAASGSTYVPYAMGWNRQETGKERELVSAIRRRGDSTNYADSVKGRFTISRDNAKNTVYLQMNSLKPEDTAVYYCAVRPYRSACGSVTRGAYYYWGQGTQVTVSS | high polyreactivity
29 | QVQLEESGGGLVQAGRSLRLSCAASGRTFNAYTMGWYRQAPGKERELVAAITSSGGNTYYADSVKGRFTISRDNVKNSVSLQINSLKPEDTAVYYCTTVYLYGTHDYWGQGTQVTLSS | low polyreactivity
30 | QVQLEESGGGLVQAGVSLRLSCAASGRIFGVYTMGWYRQAPGKERELVAAISRTGGRTYYADSVKGRFTISRDNAKNTVYLQMNSLKPEDTAVYYCAADSRGEDYYYWGQGTQVTVSS | high polyreactivity
31 | QVQLEESGGGLVQEGGSLRLICAASGSTFYVYARGWYRQAPGKERELVAAITGSTGSTYYADSVKGRFTISRDNAKNTVELQMNSLKTEVTAFYYCDADFYGVPIIYDYWRQGTQVTVSS | low polyreactivity
32 | QVQLEESGGGLVQSGGSLRLSCAASGITFARYTMGWYRQAPGKERELVAAISSAGNTYYGDSVKGRFTISRDNAKNTVYLQMNSLKPEDTAVYYCAREYTYYPRWVGYDAYGEDYWGQGTQVTVSS | low polyreactivity
33 | QVQLEESGGGLYQAGGSLRLSCAASGSILDFNAMVWYRQAPGKEMELVASIRWSGGSTYYADSVKGRFTISRDYAKNTVYFQMNSLKPEDTAVYYCAAVTYGYYRSRYSSIQPNEYDYLGQGTQVTVSS | high polyreactivity
34 | QVQLEESGGGVVQAGGSLRLSCAASGRTFYHKAMGWYRQAPGKETQVVATINSGGSTYADSVKGRFTISRDNAKNTVYLQMNSVKPEDTAVYYCAATFWSRSRFYYGYDYWGQGTQVTVSS | high polyreactivity
35 | QVQLEESGGGVVQAGGSLRLSCAASGSIFRKYAMGWYRQAPGKERELVATISWNGGRTHYADSVKGRFTISRDNAKNTVYLLMNSLKPEDTAVYYCNKDAASFRHFYGYGYWGQGTQVTVSS | low polyreactivity
36 | QVQLEESGGRLVQAGGSLRLICAASGRIFRFYTMGWYIQAPGKERELVAAITSSGRTYYADSVKGRFTISRDNAKNTVYLQMKSLKPEDTAVYYCNKYFRPRTILPSPGEYLGQGTQVTVSS | high polyreactivity
37 | QVQLEESGGRLVQAGGSLRLSCAASGLIFAVYAMGWYRQAPGKERELVASSTGSTYYADSVKGRFTISRDNAKNTVYLQMNSLKPEDHAVYYCAADIIRVLDIPLYYWGQGSQVTVSS | low polyreactivity
38 | QVQLEESGGRLVQAGGSLRLSCAASGRTFDGNTMGWYRQAPGKERELVAAITYSGTSTYYADSVKGRFTISRDNAKNTVDVQMNSLKPEDTAVYYCNKPRYYSTYRRYYWGQGTQVTVSS | high polyreactivity
39 | QVQLEESGRGLVPAGGSLRLSCAASGFTFDYNTMGWYRQAPGKERELVAAISFRGTSTYYADSVKGRFTISRDNAKNTVYLQMNSLKREDTAVYYCATRDYHVPGRFYYWGQGTQVTVSS | high polyreactivity
40 | QVQLEESGRGLVQAGGSLRLSCAASGSTLNYNTMGWYRQAPGKVRELVATISSRGGRTDYADSVKGRFTFSRDNAKNNVYLQMNSLIPEYTAVYSCNALPRVVYTVGQSTFYYWGQGTQVTVSS | high polyreactivity
